The record followed here is patent US20260000597A1 (priority 2018, published 2026).

Chain of AchR (P02708 21-457): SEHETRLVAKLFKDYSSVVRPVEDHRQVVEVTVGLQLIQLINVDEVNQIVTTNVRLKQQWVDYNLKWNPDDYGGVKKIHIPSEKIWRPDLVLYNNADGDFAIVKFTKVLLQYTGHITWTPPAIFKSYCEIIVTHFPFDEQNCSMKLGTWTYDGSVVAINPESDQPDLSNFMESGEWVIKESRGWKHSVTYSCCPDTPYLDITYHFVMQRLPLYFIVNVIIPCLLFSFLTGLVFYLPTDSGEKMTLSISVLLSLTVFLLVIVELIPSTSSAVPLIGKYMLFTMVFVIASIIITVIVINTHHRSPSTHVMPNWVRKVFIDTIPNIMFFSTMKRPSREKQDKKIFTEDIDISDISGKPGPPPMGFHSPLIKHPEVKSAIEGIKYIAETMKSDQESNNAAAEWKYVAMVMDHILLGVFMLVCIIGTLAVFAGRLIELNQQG

For the first assay, the target named is AchR (Homo sapiens, UniProt P02708). The experiment in a line: ELISA of screened peptide phages on AchR versus streptavidin (OD450). It counts as binding. The settings on record: ELISA of selected 11-mer (L2) peptide phages on AchR, absorbance at 450 nm; Spep-2 positive control. A digest of the protocol:
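Reported as the ratio of AchR to streptavidin OD450, with TMB read-out after HRP anti-M13 detection. Wells coated with 5 μg/ml target overnight at 4 °C and BSA-blocked, then incubated 1 h at 30 °C with helper-rescued phage from individual plaques.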
In general terms: ELISA stands for enzyme-linked immunosorbent assay.
In the case of “L2-128 (SPWRIRRQNIR; AchR binding peptide) [Peptide L2-128]”, the OD is 0.516.

“L2-108 (QQDRPKRDIPK; AchR binding peptide) [Peptide L2-108]” displayed an OD of 0.716.

In turn, “L2-87 (EWHKVRRVYAK; AchR binding peptide) [Peptide L2-87]” showed an OD of 0.716.

In turn, “L2-116 (SHSRQRKTPLR; AchR binding peptide) [Peptide L2-116]” returned an OD of 0.699.

The substance “L2-190 (NLVKSKKVEEK; AchR binding peptide) [Peptide L2-190]” returned an OD of 0.721.

Substance “L2-175 (CVMRCRRSEDK; AchR binding peptide) [Peptide L2-175]” came in with an OD of 0.65.

As for “L2-3 (SPVRWKRLCLR; AchR binding peptide) [Peptide L2-3]”, the OD is given as 0.796.

“L2-27 (QGEKYRRTESK; AchR binding peptide) [Peptide L2-27]” showed an OD of 0.747.

“L2-125 (PADKGRREVMK; AchR binding peptide) [Peptide L2-125]” showed an OD of 0.481.

For the substance “L2-85 (VFVKWRRQMMR; AchR binding peptide) [Peptide L2-85]”, the OD turned out to be 0.768.

“L2-195 (CQAKTRKAEDR; AchR binding peptide) [Peptide L2-195]” showed an OD of 0.65.

For the substance “L2-180 (DPEKWRKFYDR; AchR binding peptide) [Peptide L2-180]”, the OD is on record as 0.744.

Consider “L2-104 (PEDRQRKTWFK; AchR binding peptide) [Peptide L2-104]”, for which the OD is reported as 0.563.

In turn, “L2-181 (PGARCRKQDVK; AchR binding peptide) [Peptide L2-181]” showed an OD of 0.749.

“L2-95 (IMDKRRKPGCR; AchR binding peptide) [Peptide L2-95]” returned an OD of 0.522.

The substance “L2-149 (LPMKQRKCEFR; AchR binding peptide) [Peptide L2-149]” showed an OD of 0.465.

“L2-74 (CIMRVKRMWWK; AchR binding peptide) [Peptide L2-74]”: the OD is 0.651.

For the substance “L2-186 (PNWKVRRFGDK; AchR binding peptide) [Peptide L2-186]”, the OD amounted to 0.683.

“L2-23 (QTYRLKKPLQK; AchR binding peptide) [Peptide L2-23]” gave an OD of 0.832.

Substance “L2-176 (WWHKHRRAQSK; AchR binding peptide) [Peptide L2-176]” displayed an OD of 0.574.

As to “L2-61 (PTIRVRKSDDR; AchR binding peptide) [Peptide L2-61]”, the OD came to 0.688.

Take “L2-129 (TCIKYRRAHTK; AchR binding peptide) [Peptide L2-129]”: the OD was determined as 0.603.

For “L2-65 (PLWKTRKIEPR; AchR binding peptide) [Peptide L2-65]”, the OD came to 0.731.

“L2-90 (TSVKKRKQRLR; AchR binding peptide) [Peptide L2-90]” yielded an OD of 0.765.

“L2-18 (LQSRSKKYSVK; AchR binding peptide) [Peptide L2-18]” showed an OD of 0.753.

Regarding “L2-154 (NPFKYKKICPK; AchR binding peptide) [Peptide L2-154]”, the OD is 0.736.

“L2-151 (TQCKDRRVSDR; AchR binding peptide) [Peptide L2-151]”: the OD stood at 0.749.

For the substance “L2-92 (FVGRWKREYAK; AchR binding peptide) [Peptide L2-92]”, the OD came to 0.634.

“L2-47 (IEDKGRRINPR; AchR binding peptide) [Peptide L2-47]” returned an OD of 0.707.

The same assay, now with this note: ELISA of selected 14-mer (L3) peptide phages on AchR, absorbance at 450 nm; Spep-2 positive control.
“L3-200 (HMCRWRRQINKGVS; AchR binding peptide) [Peptide L3-200]” yielded an OD of 0.733.

“L3-72 (TGCRCKRSMYKNLH; AchR binding peptide) [Peptide L3-72]” came in with an OD of 0.746.

“L3-34 (LGWKKRKSLLRRHV; AchR binding peptide) [Peptide L3-34]” returned an OD of 0.74.

“L3-74 (IAIRPRKMTLKIHP; AchR binding peptide) [Peptide L3-74]” displayed an OD of 0.726.

Substance “L3-38 (TVVKSRKCSVRYNW; AchR binding peptide) [Peptide L3-38]” had an OD of 0.669.

“L3-135 (NDHRMRRSVDRGET; AchR binding peptide) [Peptide L3-135]” had an OD of 0.69.

Turning to “L3-91 (CWCRQRKCFHKPWI; AchR binding peptide) [Peptide L3-91]”, the OD is 0.749.

Substance “L3-112 (ALPRVRKDSHREEI; AchR binding peptide) [Peptide L3-112]” registered an OD of 0.731.

With “L3-107 (DLSKVRRGHGKNDI; AchR binding peptide) [Peptide L3-107]”, the OD is listed as 0.658.

The substance “L3-192 (NGYRARKENLKFPE; AchR binding peptide) [Peptide L3-192]” showed an OD of 0.735.

In turn, “L3-20 (CCFKLKKAYNKGPF; AchR binding peptide) [Peptide L3-20]” registered an OD of 0.755.

“L3-108 (ESYRLRRGTDKEQW; AchR binding peptide) [Peptide L3-108]” came in with an OD of 0.621.

“L3-152 (VVIKCRKWTHKMDH; AchR binding peptide) [Peptide L3-152]” yielded an OD of 0.818.

On to “L3-182 (FYLRERRHQLKTEF; AchR binding peptide) [Peptide L3-182]”, for which the OD was determined as 0.818.

“L3-167 (AMCREKRFPYRAIY; AchR binding peptide) [Peptide L3-167]” had an OD of 0.634.

The substance “L3-117 (CGHKNKKWHNRMDP; AchR binding peptide) [Peptide L3-117]” yielded an OD of 0.696.

The substance “L3-105 (YYEKIRRGEIKIAE; AchR binding peptide) [Peptide L3-105]” had an OD of 0.601.

For “L3-151 (HTLKPKRLYPRPSE; AchR binding peptide) [Peptide L3-151]”, the OD is recorded as 0.624.

“L3-139 (FHHRHKRIATKHPA; AchR binding peptide) [Peptide L3-139]” returned an OD of 0.49.

The substance “L3-2 (SFYKERKCQFRSGL; AchR binding peptide) [Peptide L3-2]” yielded an OD of 0.841.

In turn, “L3-55 (HFPRARRFEHRCML; AchR binding peptide) [Peptide L3-55]” displayed an OD of 0.706.

In the case of “L3-60 (EDLRCKKLELRSVI; AchR binding peptide) [Peptide L3-60]”, the OD is listed as 0.574.

“L3-97 (WSAKGRRMGCKSTM; AchR binding peptide) [Peptide L3-97]”: the OD is on record as 0.684.

“L3-68 (YSSKSRKLSPRTPR; AchR binding peptide) [Peptide L3-68]” yielded an OD of 0.792.

In turn, “L3-177 (FQPKSRRAETKHSY; AchR binding peptide) [Peptide L3-177]” gave an OD of 0.735.

For “L3-197 (QQIKYKRPTYRMVC; AchR binding peptide) [Peptide L3-197]”, the OD stood at 0.771.

For the substance “L3-143 (QTMKFKRCCNKEMV; AchR binding peptide) [Peptide L3-143]”, the OD was 0.559.

“L3-53 (HCLRTKKLINKICS; AchR binding peptide) [Peptide L3-53]” came in with an OD of 0.679.

The same assay, now with this note: phage ELISA, absorbance at 450 nm, 5 μg/ml AchR; 4th and 5th round biopanning phages.
On to KIRRVTNK [Peptide L1-162], for which the OD was 0.668.

The substance RAKKCYHK [Peptide L1-50] registered an OD of 0.583.

Substance RTKKENVK [Peptide L1-180] came in with an OD of 0.618.

KYKREEYR [Peptide L1-161] had an OD of 0.474.

Substance KEKRLYAR [Peptide L1-149] returned an OD of 0.34.

REKKQEVK [Peptide L1-150] returned an OD of 0.457.

With KNRRADCR [Peptide L1-140], the OD turned out to be 0.381.

Substance KPKRDQSR [Peptide L1-113] showed an OD of 0.526.

Consider KMRRIMYK [Peptide L1-64], for which the OD is listed as 0.589.

KRKKDWWR [Peptide L1-10]: the OD was 0.621.

On to RVRRDGHR [Peptide L1-49], for which the OD is 0.504.

In the case of KWRRNGQR [Peptide L1-98], the OD is reported as 0.54.

Consider RARKLHNR [Peptide L1-103], for which the OD came to 0.55.

For the substance KLKKFPVR [Peptide L1-4], the OD stood at 0.696.

In turn, “RRRRRRRRRRR [Peptide L2-201, reference compound]” returned an OD of 0.307.

For the substance KSRKWGWR [Peptide L1-39], the OD is listed as 0.509.

Turning to KSRRSAGK [Peptide L1-73], the OD is given as 0.644.

The substance RDRKNPVR [Peptide L1-124] displayed an OD of 0.428.

KYRRNLVR [Peptide L1-56]: the OD came out at 0.468.

KMRRVAPR [Peptide L1-176]: the OD is on record as 0.479.

The substance RIKRDYCK [Peptide L1-164] had an OD of 0.616.

As to RPKKWMQK [Peptide L1-61], the OD worked out at 0.625.

Substance KSRRAVFR [Peptide L1-151] showed an OD of 0.479.

In turn, KTKRMLAK [Peptide L1-47] had an OD of 0.54.

In turn, KERKASAK [Peptide L1-63] registered an OD of 0.618.

Regarding KARRVGTK [Peptide L1-143], the OD amounted to 0.416.

Turning to RSKKINNK [Peptide L1-71], the OD was 0.618.

Regarding KSRRMWGR [Peptide L1-183], the OD was 0.605.

For the substance RIRRHMYR [Peptide L1-83], the OD came to 0.621.

Substance KGKRTGCK [Peptide L1-126] had an OD of 0.362.
